Patent publication US20180016339A1 (University of Washington, published 2018)

Molecular target: T1, human MICB expressed on cells (TRAMP-MICB) (human, UniProt Q29980 23-383)
T1 construct: also called TC2 derivative TRAMP-MICB
T1 sequence: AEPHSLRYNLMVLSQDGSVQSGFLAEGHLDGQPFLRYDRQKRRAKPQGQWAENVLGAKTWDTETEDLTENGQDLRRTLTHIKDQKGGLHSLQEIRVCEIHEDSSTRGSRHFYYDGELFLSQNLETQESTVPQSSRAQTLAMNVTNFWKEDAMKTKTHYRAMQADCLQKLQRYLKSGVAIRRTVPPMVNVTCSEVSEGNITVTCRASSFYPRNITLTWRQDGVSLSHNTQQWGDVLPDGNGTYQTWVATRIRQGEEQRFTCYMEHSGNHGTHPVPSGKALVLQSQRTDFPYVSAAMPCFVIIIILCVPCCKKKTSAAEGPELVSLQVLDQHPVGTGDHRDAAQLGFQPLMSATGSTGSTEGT
Assay: flow cytometry on TRAMP-MICB cells, 2 ug/ml antibody, PE goat anti-mouse IgG
Experimental: Cells were analyzed with BD FACSscan. Data were analyzed with CellQuest software.

- binding result: binds
B1: monoclonal antibody P2B10G5 (antibody, V domains shown)
VH: EVQLEESGPGLVKPSQSLSLTCTVTGYSITSDYAWNWIRQFPGNKLEWMGYISYSGSTNYNPSLKSRISITRDTSKNQFFLQLNSVITEDTATYYCARGGTYFDYWGQGTTLTVSS
VL: DIVLTQTTSYLSVSLGGRVTIACKASAHINNWLAWYQQKPGNAPRLLISDATSLETGVPSRFSGSGSGKDYTLSITSLQTEDVATYYCQHYWSTPWTFGGGTKLEIKR
notes: Mouse hybridoma antibody, IgG1 kappa, raised against recombinant soluble MIC; also called mAb B10G5; anti-sMIC
